The supplement of paper PMC6757056
± gives the standard deviation of the averaged measurements.

B1: library; a variant is named by its letters at N, in order (parent)
chain: GCUGUCACCGGUGUAUUACCCUAGUGGUCGACCGGUCUGAUGAGUCUNNNNNNAGACGAAACAGC

Columns and labels:
hypoxanthine [1] = variants of: B1; assay: FACS-Seq fitted mean relative fluorescence mCherry/BFP without ligand (log10 relative fluorescence); ligand: hypoxanthine (xanthine aptamer); higher = higher reporter protein expression; conditions: HEK293T, ligand present: no
Outline: (§1)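 HEK293T libraries were lentivirally transduced with an mCherry reporter carrying the ribozyme switch and an EF1α-BFP marker, enriched, and incubated for 48 h with or without ligand before sorting into 6 bins by mCherry/BFP. Genomic DNA from each bin was PCR-amplified, barcoded and sequenced on MiSeq. Fluorescence is the fitted normal mean of the bin counts. The fit used log10(mCherry/BFP), and means were scaled to five spiked-in control ribozymes.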

hypoxanthine [2] = variants of: B1; assay: normalized RNA/DNA level with ligand (relative to sTRSVctl = 100) (log10 (% of sTRSVctl)); ligand: hypoxanthine (xanthine aptamer); higher = less ribozyme self-cleavage, higher mRNA level; conditions: ligand concentration (+) RNA-Seq: 5 mM, HEK293T, reporter: mCherry (pCS4076), ligand present: yes
Outline: (§2)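 Library plasmids carrying ribozyme switches linked to mCherry, or to eGFP in some ligand experiments, were transfected into HEK293T at 4 µg per 6-well well, with any ligand added 1 h earlier. Seventy-two hours on, total RNA was extracted with EDTA and reverse-transcribed, amplified, barcoded and sequenced. RNA level was RNA over DNA reads normalized to a spiked-in non-cleaving sequence or to the top sequences, then scaled and log-transformed. The top set was 25 sequences, the transform was ×100 and log10, and sequences needed ≥100 DNA reads.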

hypoxanthine [3] = variants of: B1; assay: normalized RNA/DNA level without ligand (relative to sTRSVctl = 100) (log10 (% of sTRSVctl)); ligand: hypoxanthine (xanthine aptamer); higher = less ribozyme self-cleavage, higher mRNA level; conditions: HEK293T, reporter: mCherry (pCS4076), ligand present: no
Outline: as §2

hypoxanthine [4] = variants of: B1; assay: FACS-Seq fitted mean relative fluorescence mCherry/BFP with ligand (log10 relative fluorescence); ligand: hypoxanthine (xanthine aptamer); ligand concentration (+) FACS-Seq: 5 mM; higher = higher reporter protein expression; conditions: HEK293T, ligand present: yes
Outline: as §1

Variant	FACS-Seq fitted mean (log10) (hypoxanthine [1])	normalized RNA/DNA level with ligand (log10) (hypoxanthine [2])	normalized RNA/DNA level without ligand (log10) (hypoxanthine [3])	FACS-Seq fitted mean (log10) (hypoxanthine [4])
UCCCGU	0.434 ± 0.043	1.934 ± 0.0021	1.703 ± 0.015	0.554 ± 0.048
GCCUGA	0.389 ± 0.04	1.99 ± 0.022	1.81 ± 0.038	0.6019 ± 0.0038
UCGCCU	-0.0175 ± 0.065	2.036 ± 0.016	1.89 ± 0.062	0.035 ± 0.011
ACGCUG	0.109 ± 0.026	1.91 ± 0.052	1.45 ± 0.031	0.566 ± 0.016
UCCCAG	0.261 ± 0.0092	1.84 ± 0.0087	1.35 ± 0.023	0.506 ± 0.016
UCCCAC	0.0771 ± 0.00054	1.894 ± 0.014	1.56 ± 0.017	0.177 ± 0.043
ACAUCG	0.306 ± 0.048	1.932 ± 0.019	1.57 ± 0.016	0.584 ± 0.052
GCGCCC	0.221 ± 0.029	1.95 ± 0.071	1.742 ± 0.0061	0.44444 ± 0.00011
UCCCUG	0.429 ± 0.01	1.87 ± 0.076	1.41 ± 0.0038	0.587 ± 0.0069
GCCGGU	0.478 ± 0.08	1.957 ± 0.01	1.982 ± 0.01	0.744 ± 0.043
UCCGGG	-0.0285 ± 0.023	1.98 ± 0.047	1.93 ± 0.031	0.2736 ± 0.00093
UCCGGA	0.226 ± 0.02	1.96 ± 0.031	1.75 ± 0.021	0.384 ± 0.0052
GCCAAG	0.432 ± 0.0083	1.829 ± 0.011	1.4 ± 0.051	0.713 ± 0.047
GCCAAA	0.458 ± 0.073	1.95 ± 0.042	1.813 ± 0.017	0.612 ± 0.1
GCGCGG	-0.388 ± 0.022	1.81 ± 0.072	1.3 ± 0.021	0.464 ± 0.018
ACCGAU	0.387 ± 0.047	1.89 ± 0.056	1.669 ± 0.0087	0.531 ± 0.015
ACGAGU	0.0593 ± 0.021	1.76 ± 0.022	1.11 ± 0.047	0.609 ± 0.0067
ACGAGA	-0.0663 ± 0.023	1.67 ± 0.045	1.14 ± 0.019	0.488 ± 0.018
ACGAGC	0.0832 ± 0.041	1.84 ± 0.049	1.27 ± 0.045	0.585 ± 0.029
ACGAGG	-0.105 ± 0.022	1.412 ± 0.013	1.04 ± 0.14	0.777 ± 0.034
CCCUGA	0.263 ± 0.023	1.92 ± 0.031	1.88 ± 0.039	0.308 ± 0.011
CCCGCA	-0.714 ± 0.04	1.94 ± 0.028	1.91 ± 0.022	-0.0625 ± 0.038
GCCGUU	-0.297 ± 0.0052	1.978 ± 0.019	1.92 ± 0.051	0.037 ± 0.093
UCGAAG	0.5 ± 0.074	1.87 ± 0.039	1.417 ± 0.0057	0.746 ± 0.025

Variant	FACS-Seq fitted mean (log10) (hypoxanthine [1])	normalized RNA/DNA level with ligand (log10) (hypoxanthine [2])	normalized RNA/DNA level without ligand (log10) (hypoxanthine [3])	FACS-Seq fitted mean (log10) (hypoxanthine [4])
UCGAAA	0.163 ± 0.02	1.86 ± 0.052	1.4 ± 0.051	0.395 ± 0.045
GCCUAA	0.363 ± 0.14	1.94 ± 0.071	1.8319 ± 0.00042	0.558 ± 0.036
GCCUAG	0.303 ± 0.03	1.89 ± 0.097	1.5 ± 0.12	0.678 ± 0.037
UCCGAG	0.3183 ± 0.002	1.82 ± 0.054	1.38 ± 0.049	0.517 ± 0.0072
UCGCAA	0.477 ± 0.093	1.9 ± 0.032	1.6 ± 0.06	0.599 ± 0.058
UCGCAG	0.221 ± 0.04	1.918 ± 0.015	1.65 ± 0.078	0.46 ± 0.083
UCCGUU	-0.463 ± 0.04	1.946 ± 0.016	1.925 ± 0.019	-0.148 ± 0.1
UCCGUG	0.223 ± 0.023	1.91 ± 0.071	1.47 ± 0.072	0.508 ± 0.065
UCCAGU	0.305 ± 0.066	1.96 ± 0.066	1.771 ± 0.013	0.502 ± 0.0098
ACAUUC	0.36 ± 0.034	1.979 ± 0.0095	1.92 ± 0.062	0.421 ± 0.02
CCCACA	0.706 ± 0.022	1.99 ± 0.086	1.862 ± 0.0068	0.739 ± 0.032
ACCGGG	0.153 ± 0.0079	1.944 ± 0.015	1.89 ± 0.038	0.548 ± 0.0066
GCGACG	0.442 ± 0.017	1.81 ± 0.021	1.3 ± 0.099	0.666 ± 0.035
GCGACA	0.145 ± 0.041	1.888 ± 0.012	1.57 ± 0.04	0.28 ± 0.021
GCGACC	0.07588 ± 0.00049	1.88 ± 0.025	1.52 ± 0.038	0.5 ± 0.093
GCCUUC	-0.325 ± 0.056	1.968 ± 0.0039	1.88 ± 0.058	0.101 ± 0.059
GCCUUA	-0.138 ± 0.047	1.97 ± 0.0091	1.92 ± 0.026	-0.197 ± 0.092
GCCUUG	0.213 ± 0.0088	1.93 ± 0.05	1.46 ± 0.016	0.64 ± 0.021
UCGAUC	0.537 ± 0.11	1.98 ± 0.033	1.96 ± 0.031	0.59 ± 0.045
ACCCUG	0.60276 ± 0.00041	1.875 ± 0.0043	1.411 ± 0.0069	0.786 ± 0.12
ACCCGG	0.195 ± 0.055	1.89 ± 0.034	1.48 ± 0.019	0.714 ± 0.058
ACCUAG	-0.692 ± 0.013	1.86 ± 0.03	1.58 ± 0.016	-0.308 ± 0.028
ACCUAC	0.113 ± 0.032	1.92 ± 0.035	1.85 ± 0.05	0.264 ± 0.013
CCGGAA	0.279 ± 0.013	1.91 ± 0.027	1.71 ± 0.044	0.1512 ± 0.00072

Variant	FACS-Seq fitted mean (log10) (hypoxanthine [1])	normalized RNA/DNA level with ligand (log10) (hypoxanthine [2])	normalized RNA/DNA level without ligand (log10) (hypoxanthine [3])	FACS-Seq fitted mean (log10) (hypoxanthine [4])
CCGAGA	0.353 ± 0.076	1.87 ± 0.042	1.51 ± 0.046	0.648 ± 0.061
CCGAGG	0.00201 ± 0.0053	1.839 ± 0.0063	1.37 ± 0.038	0.423 ± 0.024
GCAUAU	0.326 ± 0.025	1.93 ± 0.031	1.736 ± 0.0026	0.329 ± 0.014
UCCGCG	0.209 ± 0.032	1.894 ± 0.009	1.512 ± 0.011	0.621 ± 0.055
ACGCGC	0.307 ± 0.06	1.88 ± 0.052	1.54 ± 0.019	0.7 ± 0.02
ACGCGG	-0.216 ± 0.014	1.6394 ± 0.00079	1.22 ± 0.012	0.465 ± 0.047
CCAUGG	0.39 ± 0.0048	1.85 ± 0.07	1.47 ± 0.018	0.611 ± 0.053
CCAUGA	0.311 ± 0.11	1.986 ± 0.016	1.788 ± 0.016	0.414 ± 0.064
GCGAAA	0.172 ± 0.045	1.878 ± 0.0072	1.49 ± 0.019	0.404 ± 0.021
GCGAAG	-0.383 ± 0.014	1.46 ± 0.12	0.925 ± 0.14	0.417 ± 0.06
GCGAAC	0.0198 ± 0.0047	1.711 ± 0.0065	1.13 ± 0.044	0.61 ± 0.033
GCGAAU	-0.142 ± 0.009	1.833 ± 0.015	1.417 ± 0.013	0.291 ± 0.022
ACCAUA	-0.27 ± 0.052	1.85 ± 0.049	1.849 ± 0.01	-0.201 ± 0.13
ACCAUU	0.187 ± 0.05	1.971 ± 0.015	1.839 ± 0.007	0.395 ± 0.049
GCCGCG	0.226 ± 0.012	1.94 ± 0.045	1.521 ± 0.0049	0.576 ± 0.024
GCCGCA	0.533 ± 0.054	1.96 ± 0.067	1.845 ± 0.0021	0.587 ± 0.027
CCCAAA	0.477 ± 0.017	1.922 ± 0.019	1.84 ± 0.036	0.617 ± 0.11
CCCAAG	0.293 ± 0.059	1.91 ± 0.033	1.6 ± 0.079	0.439 ± 0.018
UCAUUU	0.631 ± 0.012	1.96 ± 0.052	1.91 ± 0.031	0.769 ± 0.024
GCGCAC	0.112 ± 0.061	1.8 ± 0.2	1.412 ± 0.0031	0.0185 ± 0.28
GCGCAG	-0.0972 ± 0.035	1.58 ± 0.048	1.06 ± 0.11	0.617 ± 0.052
CCCUCU	0.556 ± 0.081	1.98 ± 0.036	1.994 ± 0.015	0.481 ± 0.086
UCAUGA	0.457 ± 0.055	1.885 ± 0.014	1.5 ± 0.032	0.53 ± 0.061
